Molecular target: human ST2 on primary human cells (human) (UniProt Q01638)
Test: cell-based or functional assay

Sequence of human ST2 on primary human cells (human) (Q01638 19-556 A78X, form in doubt): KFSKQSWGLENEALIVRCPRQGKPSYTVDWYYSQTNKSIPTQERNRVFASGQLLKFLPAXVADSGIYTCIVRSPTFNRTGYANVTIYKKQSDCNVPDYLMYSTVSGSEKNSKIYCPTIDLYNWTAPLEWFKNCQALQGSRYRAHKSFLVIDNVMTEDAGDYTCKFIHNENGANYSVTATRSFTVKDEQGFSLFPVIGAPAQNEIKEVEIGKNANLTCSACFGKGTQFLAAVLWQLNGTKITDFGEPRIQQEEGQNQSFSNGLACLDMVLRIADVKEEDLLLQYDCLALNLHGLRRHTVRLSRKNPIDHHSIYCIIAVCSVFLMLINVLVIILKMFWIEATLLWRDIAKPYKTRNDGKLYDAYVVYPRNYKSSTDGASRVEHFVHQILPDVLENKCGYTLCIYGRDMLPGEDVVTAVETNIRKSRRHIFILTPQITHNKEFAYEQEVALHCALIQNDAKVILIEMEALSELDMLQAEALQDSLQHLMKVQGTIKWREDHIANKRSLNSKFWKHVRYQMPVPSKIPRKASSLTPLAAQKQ

IC50 (ug/ml), inhibition of IL-33-dependent IFN-γ release from human NK cells (IL-33 10 ng/mL and IL-12): 0.385 µg/mL
Substance: 97203 (antibody)
